Earlier results in PMC4266928.

Biological target: insulin (Homo sapiens) (UniProt P01308)

Kd: 10 µM
Substance: insulin (from UniProt P01308)
